The data set can be described thus: self-splicing fitness, log relative to wild type (ln ratio); higher = more splicing; Tetrahymena group I intron in knt gene, E. coli kanamycin selection, DiMSum; sequences stand for … in CUCUCU…GGAGGGAAAAGUUAUCAGGCAUGCACCUGGUAGCUAGUCUUUAAACCAAUAGAUUGCAUCGGUUUAAAAGGCAAGACCGUCAAAUUGCGGGAAAGGGGUCAACAGCCGUUCAGUACCAAGUCUCAGGGGAAACUUUGAGAUGGCCUUGCAAAGGGUAUGGUAAUAAGCUGACGGACAUGGUCCUAACCACGCAGCCAAGUCCUAAGUCAACAGAUCUUCUGUUGAUAUGGAUGCAGUUCACAGACUAAAUGUCGGUCGGGGAAGAUGUAUUCUUCUCAUAAGAUAUAGUCGGACCUCUCCUUAAUGGGAGCUAGCGGAUGAAGUGAUGCAACACUGGAGCCGCUGGGAACUAAUUUGUAUGCGAAAGUAUAUUGAUUAGUUUUGGAGUACUCGUGGUCG
Summed up: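 Six replicate transformations of E. coli BL21(DE3) with a pET-22b(+) library were grown overnight at 37°C or 30°C. The library randomised all eight P1ex-region intron nucleotides, the intron lying in the knt kanamycin-resistance gene, and plates were LB agar with or without 25 μg/mL kanamycin plus 100 μg/mL carbenicillin, 50 μM IPTG and 0.2% rhamnose. Pooled colonies were amplicon-sequenced on an Illumina HiSeq 2500, and fitness is the DiMSum error-weighted combination of wild-type-normalised replicate fold changes, kanamycin versus none.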

± gives the uncertainty stated by the source.

This is an account of results in the supplement of paper PMC7877785.

For ACGGAGCAAUAUUACGGUCA, the “self-splicing fitness (ln)” value is -3.14 ± 0.3 (30 °C) and -1.35 ± 0.18 (37 °C).
Taken in the same sequence, the figures for AAACAGCAAUAUUACGAUGU were -1.36 ± 0.088 and -0.715 ± 0.091.
Taken in the same sequence, the figures for GGCCAGCAAUAUUACGAAGU were -2.41 ± 0.39 and -1.26 ± 0.26.
Taken in the same sequence, the figures for CUAAAGCAAUAUUACGAGCU were -4.12 ± 0.26 and -2.82 ± 0.38.
For CAAAAGCAAUAUUACGAACU, the “self-splicing fitness (ln)” value (30 °C) was -2.51 ± 0.19 and the “self-splicing fitness (ln)” value (37 °C) is -1.3 ± 0.21.
Consider CGGGAGCAAUAUUACGCAUG, for which the “self-splicing fitness (ln)” value (30 °C) was -2.83 ± 0.29 and the “self-splicing fitness (ln)” value (37 °C) is -0.773 ± 0.21.
UGUAAGCAAUAUUACGGAGG: the “self-splicing fitness (ln)” value is, setting by setting: (30 °C) -3.23 ± 0.21; (37 °C) -3.5 ± 0.33.
Taken in the same sequence, the figures for AAUGAGCAAUAUUACGAUAA were -3.11 ± 0.17 and -2.51 ± 0.2.
Taken in the same sequence, the figures for AUCAAGCAAUAUUACGACUA were -0.634 ± 0.076 and 0.132 ± 0.088.
Taken in the same sequence, the figures for CAAGAGCAAUAUUACGGCCU were -3.5 ± 0.25 and -1.27 ± 0.33.
Consider CAGGAGCAAUAUUACGGUGU, for which the “self-splicing fitness (ln)” value is, setting by setting: (30 °C) -3.1 ± 0.15; (37 °C) -2.66 ± 0.2.
Turning to UCCCAGCAAUAUUACGUGGG, the “self-splicing fitness (ln)” value reads like this: (30 °C) -3.37 ± 0.1; (37 °C) -2.85 ± 0.16.
Taken in the same sequence, the figures for UCAAAGCAAUAUUACGGACG were -1.16 ± 0.079 and -0.282 ± 0.1.
Taken in the same sequence, the figures for CCUUAGCAAUAUUACGCGGA were -2.93 ± 0.19 and -2.55 ± 0.21.
As for AAUCAGCAAUAUUACGAUUU, the “self-splicing fitness (ln)” value runs as follows: (30 °C) -1.8 ± 0.076; (37 °C) -0.714 ± 0.086.
ACGUAGCAAUAUUACGAGAG: the “self-splicing fitness (ln)” value is, setting by setting: (30 °C) -2.93 ± 0.14; (37 °C) -2.97 ± 0.23.
As to UGCCAGCAAUAUUACGAUCU, the “self-splicing fitness (ln)” value runs as follows: (30 °C) -2.48 ± 0.1; (37 °C) -1.44 ± 0.1.
Taken in the same sequence, the figures for CGCGAGCAAUAUUACGGGAU were -4.13 ± 0.23 and -2.59 ± 0.21.
As for CUGCAGCAAUAUUACGGCGC, the “self-splicing fitness (ln)” value was -3.82 ± 0.3 (30 °C) and -2.75 ± 0.4 (37 °C).
Taken in the same sequence, the figures for CGGAAGCAAUAUUACGUAAU were -2.35 ± 0.19 and -1.23 ± 0.19.
Taken in the same sequence, the figures for GACCAGCAAUAUUACGGAGG were -2.04 ± 0.068 and -0.681 ± 0.07.
Taken in the same sequence, the figures for CGCGAGCAAUAUUACGAAUG were -1.9 ± 0.095 and -0.424 ± 0.13.
With UGGAAGCAAUAUUACGUUGA, the “self-splicing fitness (ln)” value (30 °C) was -2.36 ± 0.17 and the “self-splicing fitness (ln)” value (37 °C) is -2.01 ± 0.2.
Taken in the same sequence, the figures for AUUCAGCAAUAUUACGCGAU were -3.46 ± 0.18 and -3.23 ± 0.26.
Taken in the same sequence, the figures for UGCUAGCAAUAUUACGAGCU were -0.987 ± 0.068 and -0.622 ± 0.082.
Taken in the same sequence, the figures for CUAGAGCAAUAUUACGGCAA were -3.09 ± 0.22 and -2.96 ± 0.34.
Consider CUCCAGCAAUAUUACGGGUG, for which the “self-splicing fitness (ln)” value was -2.79 ± 0.097 (30 °C) and -1.53 ± 0.088 (37 °C).
For the sequence GUAUAGCAAUAUUACGUAGA, under “37 °C”, the “self-splicing fitness (ln)” value was -2.07 ± 0.32.
For the sequence CCCGAGCAAUAUUACGGAAA, the “self-splicing fitness (ln)” value runs as follows: (30 °C) -2.2 ± 0.32; (37 °C) -1.57 ± 0.33.
In the case of CCAAAGCAAUAUUACGUGUC, the “self-splicing fitness (ln)” value is, setting by setting: (30 °C) -3.56 ± 0.21; (37 °C) -3.6 ± 0.29.
Taken in the same sequence, the figures for CCCUAGCAAUAUUACGUCUG were -2.99 ± 0.18 and -3.17 ± 0.22.
Taken in the same sequence, the figures for UGAGAGCAAUAUUACGUAUG were -1.55 ± 0.13 and -1.66 ± 0.22.
Taken in the same sequence, the figures for UAGAAGCAAUAUUACGCAAC were -1.44 ± 0.18 and -2.33 ± 0.42.
Turning to UCACAGCAAUAUUACGAUGA, the “self-splicing fitness (ln)” value was -1.29 ± 0.1 (30 °C) and -0.136 ± 0.11 (37 °C).
For the sequence GCCGAGCAAUAUUACGACGG, the “self-splicing fitness (ln)” value is, setting by setting: (30 °C) -3.78 ± 0.23; (37 °C) -2.76 ± 0.28.
Take AAGCAGCAAUAUUACGCCGC: under “37 °C”, the “self-splicing fitness (ln)” value is -2.37 ± 0.45.
For UGUUAGCAAUAUUACGUUCA, the “self-splicing fitness (ln)” value was 0.071 ± 0.12 (30 °C) and -0.114 ± 0.14 (37 °C).
